# Literature values, collected in paper PMC10461426.
# Read-outs that look alike come from different tables or passages of the source.
# Legend:
# IL-1R1 (Homo sapiens) [1] = biological target: IL-1R1 (Homo sapiens) (UniProt P14778)
# IL-1R1 (Homo sapiens) [2] = biological target: IL-1R1 (Homo sapiens) (UniProt P14778); remark: listed apart in the source
# IL-1R1 (Homo sapiens) [3] = biological target: IL-1R1 (Homo sapiens) (UniProt P14778); remark: listed apart in the source
substance,measurement,setting,value
IL-1beta (from UniProt P01584),Kd,IL-1R1 (Homo sapiens) [1],21 nM
IL-1Ra (from UniProt P18510),Kd,IL-1R1 (Homo sapiens) [2],38 nM
IL-38 (from UniProt Q8WWZ1),Kd,IL-1R1 (Homo sapiens) [3],93 nM
